Results reported in article PMC5479578 (Biochemistry, 2017).
One block for each molecule: values may come before it. Square brackets hold non-standard residues; d marks the D form. Ends that are not written are not given here. Peptide text beside a SMILES is read from it. * marks the point of attachment. FITC = O=C1OC2(c3ccc(O)cc3Oc3cc(O)ccc32)c2ccc(NC(=S)*)cc21; Biotin = O=C1N[C@H]2[C@H](CS[C@H]2CCCCC(=O)*)N1; pT = C[C@@H](OP(=O)(O)O)[C@H](N)C(=O)O

Experiments:
[1] = biological target: NHERF1 PDZ1 domain (1-140) (human) (UniProt O14745); assay: ITC
[2] = biological target: NHERF1 PDZ2 domain (133-300) (human) (UniProt O14745); assay: ITC
[3] = biological target: T1, PDZ2 of NHERF1 (Homo sapiens, UniProt O14745); assay: Surface plasmon resonance, NHERF1 PDZ2; format: binding
T1 sequence (O14745 133-300): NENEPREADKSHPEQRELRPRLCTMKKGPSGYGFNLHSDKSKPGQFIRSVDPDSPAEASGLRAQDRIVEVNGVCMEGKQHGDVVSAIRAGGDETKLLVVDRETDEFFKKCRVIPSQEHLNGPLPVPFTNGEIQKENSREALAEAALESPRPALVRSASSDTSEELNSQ

[4] = biological target: T2, PDZ1 of NHERF1 (Homo sapiens, UniProt O14745); assay: Isothermal titration calorimetry, NHERF1 PDZ1; format: binding
T2 sequence (O14745 1-140): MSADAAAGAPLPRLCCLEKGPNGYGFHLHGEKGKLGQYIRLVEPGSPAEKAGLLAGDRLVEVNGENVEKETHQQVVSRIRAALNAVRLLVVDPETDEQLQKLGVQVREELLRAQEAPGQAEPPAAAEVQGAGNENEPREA

[5] = biological target: T1, PDZ2 of NHERF1; assay: Isothermal titration calorimetry, NHERF1 PDZ2; format: binding
[6] = test system: PTHR; assay: Mass spectrometry of PTHR phosphorylation in cell lysates; format: cell-based; conditions: PTH(1–34) treatment; MS-MS of cell lysates
[7] = biological target: T3, NHERF1 PDZ2 domain (133-300) (human, UniProt O14745 133-300); assay: ITC
T3 sequence (looked up): T1 sequence (O14745 133-300)

[8] = biological target: T4, NHERF1 PDZ1 domain (1-140) (human, UniProt O14745 1-140); assay: ITC
T4 sequence (looked up): T2 sequence (O14745 1-140)

[9] = biological target: T4, NHERF1 PDZ1 domain (1-140); assay: fluorescence polarisation
[10] = biological target: T3, NHERF1 PDZ2 domain (133-300); assay: SPR
[11] = biological target: T4, NHERF1 PDZ1 domain (1-140); assay: SPR
[12] = biological target: T3, NHERF1 PDZ2 domain (133-300); assay: SPR; remark: listed apart in the source
[13] = biological target: T4, NHERF1 PDZ1 domain (1-140); assay: SPR; remark: listed apart in the source
[14] = biological target: T3, NHERF1 PDZ2 domain (133-300); assay: fluorescence polarisation
[15] = biological target: T3, NHERF1 PDZ2 domain (133-300); assay: fluorescence polarisation; remark: listed apart in the source
[16] = biological target: T4, NHERF1 PDZ1 domain (1-140); assay: fluorescence polarisation; remark: listed apart in the source
[17] = biological target: T3, NHERF1 PDZ2 domain (133-300); assay: fluorescence polarisation; remark: listed apart in the source
[18] = biological target: T4, NHERF1 PDZ1 domain (1-140); assay: fluorescence polarisation; remark: listed apart in the source
[19] = biological target: T3, NHERF1 PDZ2 domain (133-300); assay: fluorescence polarisation; remark: listed apart in the source
[20] = biological target: T4, NHERF1 PDZ1 domain (1-140); assay: fluorescence polarisation; remark: listed apart in the source
[21] = biological target: T3, NHERF1 PDZ2 domain (133-300); assay: fluorescence polarisation; remark: listed apart in the source
[22] = biological target: T4, NHERF1 PDZ1 domain (1-140); assay: fluorescence polarisation; remark: listed apart in the source

Kd [4]: 25.5 ± 1.1 µM | Kd [5]: 26.8 ± 2.1 µM
Molecule: QEAWETVM [QEAWETVM]

n (stoichiometry) ([4]; ITC, PDZ1, 25 °C, mean ± S.E.M. (n = 3)): 1.12 ± 0.03 | n (stoichiometry) ([5]; ITC, PDZ2, 25 °C, mean ± S.E.M. (n = 3)): 1.04 ± 0.02
Molecule: QEAWATVM

Kd [4]: 34.2 ± 0.5 µM | Kd [5]: 35.5 ± 2 µM
Molecule: QEEWATVM [QEEWATVM]

Kd [7]: 9.7 µM | dH [7]: -21.6 kcal/mol | stoichiometry N [7]: 1.13 | Kd [8]: 11.7 µM | dH [8]: -10.6 kcal/mol | stoichiometry N [8]: 1.11
Molecule: QEEWETVM [wild-type PTHRct-8 peptide]

Ki [9]: 121 µM
Molecule: LQEEWE[pT]VM [phosphorylated Thr-2-PTHRct-9]

Kd [10]: 11.5 µM | Kd [11]: 16 µM | koff [12]: 0.393 s⁻¹ | kon [12]: 57000 M⁻¹ s⁻¹ | koff [13]: 0.606 s⁻¹ | kon [13]: 14700 M⁻¹ s⁻¹ | Ki [14]: 7 µM
Molecule: Biotin-DEEASGPERPPALLQEEWETVM [biotinylated carboxy-terminal 22-amino acid PTHR peptide]

Ki [9]: 11 µM
Molecule: LQEEWECVM [Thr-2/Cys-2 mutant of PTHRct-9]

Continued, molecule first:

Molecule: PTHRct-8 peptide with Ala at Glu-5
Kd [1]: 25.5 µM | dH [1]: -7.6 kcal/mol | stoichiometry N [1]: 1.21 | Kd [2]: 26.8 µM | dH [2]: -10.3 kcal/mol

Molecule: CSCC[C@H](NC(=O)[C@@H](NC(=O)[C@@H](NC(=O)[C@H](CCC(=O)O)NC(=O)[C@H](Cc1c[nH]c2ccccc12)NC(=O)[C@H](CCC(=O)O)NC(=O)[C@H](CCC(=O)O)NC(=O)[C@H](CCC(N)=O)NC(=O)[C@H](CC(C)C)NC(=O)[C@H](CC(C)C)NC(=O)[C@H](C)NC(=O)[C@@H]1CCCN1C(=O)[C@@H]1CCCN1C(=O)[C@H](CCCNC(=N)N)NC(=O)[C@H](CCC(=O)O)NC(=O)[C@@H]1CCCN1C(=O)CNC(=O)[C@H](CO)NC(=O)[C@H](C)NC(=O)[C@H](CCC(=O)O)NC(=O)[C@H](CCC(=O)O)NC(=O)[C@H](CC(=O)O)NC(=O)CCCC[C@@H]1SC[C@@H]2NC(=O)N[C@@H]21)[C@@H](C)O)C(C)C)C(=O)O [b-PTHRct-22] (Biotin-DEEASGPERPPALLQEEWETVM-OH)
Kd [3]: 11.5 ± 0.4 µM

Molecule: human Nle^8,18Tyr^34-PTH(1–34)
phosphorylation of PTHR Thr591 [6]: promoted phosphorylation of Thr591

Molecule: PTHRct-8 peptide with Ala at Glu-6
Kd [1]: 13.1 µM | dH [1]: -4.3 kcal/mol | stoichiometry N [1]: 1.1 | Kd [2]: 18.1 µM | stoichiometry N [2]: 1.12

Molecule: QAEWETVM [QAEWETVM]
Kd [4]: 13.1 ± 1.7 µM | Kd [5]: 18.1 ± 2.4 µM

Molecule: PTHRct-8 peptide with Ala at Glu-6 and Glu-5
Kd [1]: 24.4 µM | dH [1]: -3.8 kcal/mol | stoichiometry N [1]: 1.26 | Kd [2]: 57.8 µM | dH [2]: -7.2 kcal/mol | stoichiometry N [2]: 1.26

Molecule: PTHRct-8 peptide with Ala at Glu-3
Kd [1]: 34.2 µM | stoichiometry N [1]: 1.15 | Kd [2]: 35.5 µM | dH [2]: -8.6 kcal/mol | stoichiometry N [2]: 0.88

Molecule: QAAWETVM [QAAWETVM]
Kd [4]: 24.4 ± 0.6 µM

Molecule: LQEEWETVM [unlabeled carboxy-terminal PTHR 9-residue peptide]
Ki [9]: 1.4 ± 0.9 µM

Molecule: {FITC}-LQEEWETVM [FITC-labeled carboxy-terminal PTHR 9-residue peptide]
Kd [15]: 0.6 µM | Kd [16]: 1 µM | Kd [17]: 0.4 µM | Kd [18]: 0.4 µM | Kd [19]: 2.4 µM | Kd [20]: 4.7 µM | Kd [21]: 0.6 µM | Kd [22]: 1 µM
